The target in the experiment is Recombinant human G-CSFR (granulocyte-colony-stimulating factor receptor) (human) (UniProt Q99062).
Sequence of UniProt Q99062 (Q99062 25-333): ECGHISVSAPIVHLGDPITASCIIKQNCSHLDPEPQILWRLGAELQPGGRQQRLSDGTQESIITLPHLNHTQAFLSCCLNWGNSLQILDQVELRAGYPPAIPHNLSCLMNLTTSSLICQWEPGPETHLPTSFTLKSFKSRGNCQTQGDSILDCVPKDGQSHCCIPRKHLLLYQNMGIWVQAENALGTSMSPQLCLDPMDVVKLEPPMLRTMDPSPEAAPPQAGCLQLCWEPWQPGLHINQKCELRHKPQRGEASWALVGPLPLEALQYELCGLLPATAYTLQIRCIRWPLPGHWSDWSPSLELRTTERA

As to “Recombinant human granulocyte colony-stimulating factor (rhG-CSF) (from UniProt P09919 31-207) (ligand)”, the EC50 (pM) of proliferation of murine NFS-60 cells (48 h, CellTiter-Blue; receptor of the cells); rhG-CSF self-made from E. coli turned out to be 2.6 pM.

Values taken from PMC12628175.
